{
  "source": "patent US20220193270A1",
  "about": "“METHOD FOR ENHANCING TUMOR GROWTH” (MINERVA BIOTECHNOLOGIES CORPORATION, priority 2013, published 2022)",
  "molecules": {"B1": {"name": "NME7-AB: recombinant human NME7 variant (A and B domains, SEQ ID NO:39) secreted as a monomer; 'NME7' in the experiments means this protein (protein)", "chain": "MEKTLALIKPDAISKAGEIIEIINKAGFTITKLKMMMLSRKEALDFHVDHQSRPFFNELIQFITTGPIIAMEILRDDAICEWKRLLGPANSGVARTDASESIRALFGTDGIRNAAHGPDSFASAAREMELFFPSSGGCGPANTAKFTNCTCCIVKPHAVSEGLLGKILMAIRDAGFEISAMQMFNMDRVNVEEFYEVYKGVVTEYHDMVTEMYSGPCVAMEIQQNNATKTFREFCGPADPEIARHLRPGTLRAIFGKTKIQNAVHCTDLPEDGLLEVQYFFKILDN", "modifications": "Human NME7-AB", "notes": "'NME7' in the experiments means this protein"}},
  "key": {"[1]": {"tested_on": "T47D breast cancer cells", "assay": "T47D xenograft engraftment, cells mixed with Matrigel plus NME7, with or without daily NME7 injections", "assay_type": "in vivo, nu/nu mice", "protocol": "Example 1: Immune-compromised nu/nu mice between 40-60 days old were implanted with 90-day estrogen release pellets to foster the engraftment and growth of breast tumor cells. Human T47D breast cancer cells were mixed 1:2 with Matrigel then injected into the flank of the mouse (4 million each mouse), six (6) mice per group. In a second group, cancer cells were mixed with Matrigel at the same 1:2 ratio (100 uL cells: 200 ul Matrigel) except, human recombinant NME7-AB was added into the cell/Matrigel mix to a final NME7 concentration of 16 nM (6 mice). Of those six (6) mice, three (3) were randomly chosen to receive NME7 injections daily (100 uL at 32 nM), after day 14. […] After Day 14, the mice whose tumor cells were mixed with NME7 were also injected once daily with human recombinant NME7. […] After Day 14, half of the mice were also injected once daily with human recombinant NME7. […] Dashed lines indicate mice that were also injected with NME7 after Day 14."}, "[2]": {"tested_on": "PC3 MUC1-negative prostate cancer cells", "assay": "RT-PCR of stem cell markers in PC3 cells cultured with agent", "assay_type": "cell-based, human", "protocol": "(§1) Example 3: Agents that are able to maintain stem cells in the naïve state transform cancer cells into cancer stem cells wherein only a small number of cells are required for engraftment. Cancer cells were cultured according to standard practice. In the controls, the cancer cells were cultured in their normal media: RPMI for T47D breast cancer cells, DU145 and PC3 prostate cancer cells. However, the test agents, recombinant proteins human NME1 dimers, bacterial HSP593 NME1 dimers, human NME7-AB and 2i, were added to a serum-free minimal media to eliminate potential interference from the many growth factors and cytokines in serum.\n(§2) To this serum-free minimal media, rhNME1 (aka NM23) was added to a final concentration of 8 nM, or bacterial HSP593 recombinant NME1 was added to a final concentration of 8 nM, or rhNME7-AB was added to a final concentration of 4 nM, or 2i inhibitors, PD0325901 and CHIR99021, which inhibit the MAP kinase pathway and GSK3, respectively, were added to a final concentration of 3 μM and 1 μM.\nPC3 MUCl-negative prostate cancer cells were also tested for their ability to transform into cancer stem cells when cultured in agents that are able to maintain stem cells in the naïve state. PC3 cells were cultured as described above with either human NME1 dimers, bacterial NME1 dimers or NME7-AB. […] Thus, the RT-PCR measurements of the cancer stem cell markers may be lower because measurements will be the average of transformed cells and non-transformed cells."}, "[3]": {"tested_on": "MUC1-positive T47D breast cancer cells", "assay": "RT-PCR of cancer stem cell markers and chromatin rearrangement factors in T47D cells cultured in serum-free minimal media with agent", "assay_type": "cell-based, human", "protocol": "as §1\nSerum-free Minimal Media 500 mL includes the following components: 394 mL DMEM/F12, GlutaMAX; 100 mL Knockout™ Serum Replacement; 5.0 mL 100×MEM Non-essential Amino Acid Solution; 0.9 mL P-mercaptoethanol, 55 mM stock.\nas §2\nWhen a rho kinase inhibitor, “Ri” or “ROCi”, was added it was Y27632 from Stemgent (Cambridge, Mass.), added immediately before use to a final concentration of 10 uM.\nExample 3a: Breast cancer T47D cells were cultured either in the traditional RPMI growth media or in a minimal stem cell media to which was added either human NME1 dimers, also known as NM23-H1, bacterial HSP593 NME1 dimers, human NME7-AB, or kinase inhibitors known as ‘2i’. What these agents have in common is that they are each able to promote the growth of stem cells in the naive state or are able to revert primed state stem cells to the less mature naive state. We observed that some of the T47D cancer cells cultured in any of these agents became non-adherent. These ‘floaters’ were also morphologically different. The addition of a rho kinase inhibitor, called ‘Ri’ or ‘ROCP here caused most of the cells to remain attached to the surface. […] When a rho kinase inhibitor is added, all the cells remain attached but the RT-PCR measurements indicate that the resultant measure is of a mixture of the cells that were transformed and those that were not or were not yet.\nExample 3c: In this example, the effect of ‘2i’ inhibitors on cancer cells was tested. Recall that 2i is the name given to 2 small molecules, […] that inhibit the MAP kinase pathway and GSK3 respectively. […] In this experiment, we cultured MUCl-positive T47D breast cancer cells in minimal media to which was added either 2i or NME7-AB."}, "[4]": {"tested_on": "human fibroblasts", "assay": "RT-PCR of stem/cancer markers and chromatin rearrangement factors in fibroblasts cultured with NME proteins", "assay_type": "cell-based", "details": "after 15-20 days in culture", "protocol": "Agents that are able to maintain stem cells in the naive state are also able to transform somatic cells to a cancer or stem-like state. Human NME1 dimer or human NME7 are able to make somatic cells revert to a less mature state, expressing stem and cancer cell markers. Bacterial NME from HSP 593 was tested alongside the human homologs to determine if it could mimic their function by being able to revert somatic cells to a cancer-like state. Human fibroblasts were cultured in a serum-free minimal base media with either HSP 593, human NME1 dimers or human NME7-AB as the only growth factor or cytokine. […] Recalling that stem cells and metastatic cancer cells can grow anchorage-independently, we repeated the experiments but this time a rho kinase inhibitor was added to one set of cells to make the cells adhere to the surface. […] Photos of the experiment show the dramatic change in morphology as the fibroblasts revert when cultured in human or bacterial NME, FIGS. 52-59. The relative order of efficiency of reverting somatic cells to a less mature state was NME7>NME1 dimers >NME1 bacterial. […] However, Bacterial NME from HSP 593 apparently up-regulates expression of human NME7 and NME1.\nExample 3d: In this example, fibroblast cells were cultured in the presence of recombinant human NME1/NM23 dimers, bacterial HSP593 NME1 dimers or NME7-AB. The fibroblasts were cultured in their normal media as a control, which is for 500 mL, 445 mL DMEM high glucose base media, 5 mL GlutaMAX and 50 mL of fetal bovine serum (FBS). After 15-20 days in culture with either NME1/NM23 dimers, bacterial HSP593 NME1 dimers or NME7-AB, the morphology of the cells completely changed so that they no longer were recognizable as fibroblasts. […] Here, ‘minus ROCi’ refers to cells that became non-adherent and floated off the surface."}, "[5]": {"details": "serum-free minimal media with agent vs RPMI, FIG. 6"}, "[6]": {"details": "summary statement, cells not named"}},
  "data": [
    {"molecule": "B1", "values": [
      {"measurement": "engraftment rate", "setting": "[1]; cancer cells mixed with NME7 prior to implantation alone", "result": 33, "unit": "%"},
      {"measurement": "engraftment rate", "setting": "[1]; mixed with NME7 prior to implantation plus NME7 injections into the animal after cell implantation", "result": 66, "unit": "%"},
      {"measurement": "implanted mice showing tumor growth characteristic of engraftment", "setting": "[1]; of six (6) implanted mice, T47D mixed with Matrigel and NME7 (two of six with standard Matrigel)", "result": 4},
      {"measurement": "average growth increase from Day 7 until day 21", "setting": "[1]; tumors mixed with NME7 prior to implantation (57% without it)", "result": 144, "unit": "%"},
      {"measurement": "expression of stem cell markers SOX2, OCT4 and NANOG", "setting": "[2]; after passage in agent, FIG. 12a", "result": "modest increases"},
      {"measurement": "expression of cancer stem cell or stem cell markers", "setting": "[2]; serial passaging in the media, FIG. 12b", "result": "decreased"},
      {"measurement": "expression of NANOG, KLF2, KLF4 and TBX3", "setting": "[3]; FIG. 6", "result": "modest increases"},
      {"measurement": "expression of CDH1 (E-cadherin), MUC1 and NANOG", "setting": "[3]; FIG. 7", "result": "increases"},
      {"measurement": "expression of CXCR4, SOX2 and OCT4", "setting": "[3]; FIG. 7", "result": "dramatic increases"},
      {"measurement": "expression of stem cell markers KLF2 and KLF4", "setting": "[3]; FIG. 7", "result": "modest increases"},
      {"measurement": "expression level of the cancer stem cell markers", "setting": "[3]; FIG. 9 and FIG. 10, combinations with 2i versus NME7-AB alone", "result": "even higher expression level"},
      {"measurement": "expression of MBD3, CHD4, BRD4 and JMJD6", "setting": "[3]; cancer cells cultured in agent, FIG. 13, FIG. 14", "result": "naturally suppressed"},
      {"measurement": "overexpression of metastasis receptor CXCR4", "setting": "[3]; floaters after seven (7) days in recombinant human NME7-AB, FIG. 21 legend", "result": "more than 100 fold"},
      {"measurement": "expression of CXCR4 over control cells cultured in RPMI media", "setting": "[3]; floating cells after 7-10 days in minimal media with 4 nM rhNME7-AB, cells used for implantation", "result": 130, "unit": "times"},
      {"measurement": "expression of chromatin rearrangement factors MBD3 and CHD4", "setting": "[3]; minimal media with agent, FIG. 13, FIG. 14", "result": "suppressed expression"},
      {"measurement": "expression of metastatic receptor CXCR4 relative to T47D cells in normal growth media", "setting": "[3]; serum-free minimal media with agent as single growth factor vs RPMI, FIG. 6", "result": "~200", "unit": "times"},
      {"measurement": "CDH1 (E-cadherin) expression increase", "setting": "[3]; serum-free minimal media with agent vs RPMI", "result": "about 10 fold"},
      {"measurement": "MUC1 expression increase", "setting": "[3]; [5]", "result": "about 10 fold"},
      {"measurement": "OCT4 expression increase", "setting": "[3]; [5]", "result": "about 50 times"},
      {"measurement": "SOX2 expression increase", "setting": "[3]; [5]", "result": "~200", "unit": "times"},
      {"measurement": "up-regulation of CXCR4", "setting": "[3]; [6]", "result": 200, "unit": "×"},
      {"measurement": "up-regulation of KLF4", "setting": "[3]; [6]", "result": 4, "unit": "×"},
      {"measurement": "up-regulation of MUC1", "setting": "[3]; [6]", "result": 10, "unit": "×"},
      {"measurement": "up-regulation of SOX2", "setting": "[3]; [6]", "result": "> 150", "unit": "×"},
      {"measurement": "expression of stem cell marker genes OCT4 and NANOG", "setting": "[4]; FIG. 15", "result": "greatly increased expression"},
      {"measurement": "expression of BRD4, JMJD6, MBD3 and CHD4", "setting": "[4]; FIG. 16", "result": "decreased expression"}
    ]}
  ]
}
